Test results taken from paper PMC6474815.

Test system: CC(=O)SCCNC(=O)CCNC(=O)[C@H](O)C(C)(C)COP(=O)(O)OP(=O)(O)OC[C@H]1O[C@@H](n2cnc3c(N)ncnc32)[C@H](O)[C@@H]1OP(=O)(O)O
Assay: discontinuous colorimetric DTNB assay
Assay type: biochemical, Pseudomonas aeruginosa
Details: 5 mM polymyxin B constant, 50 mM Tris-HCl pH 8.0, 37 °C

PA3944 (tagged) (Pseudomonas aeruginosa PAO1)
Km: 118 ± 28 µM | kcat: 0.602 s⁻¹ | kcat/Km: 5100 M⁻¹ s⁻¹

PA3944 (cleaved) (Pseudomonas aeruginosa PAO1)
Km: 137 ± 20 µM | kcat: 0.61 s⁻¹ | kcat/Km: 4450 M⁻¹ s⁻¹
